Data set [1] can be described thus: in vitro. The following applies: human, plasma, plasma protein binding. In kind it is in vitro ADME. The protocol: To determine binding to plasma proteins, BCY18469 was labeled with ^68Ga (apparent molar activity 1 GBq/µmol). Thereafter, 10 µL of the labeling mixture were added to 100 µL of mouse or human plasma (mouse: BioIVT, United Kingdom, human: Sigma Aldrich, Germany). The mixture was left for 15 min at room temperature. Afterwards, the plasma was loaded into an ultrafiltration device (Amicon Ultra 0.5ml - 30 kDa, Merck, Germany) and centrifuged at 14,000 rpm for 30 min at r.t. The filtrate and the membrane were measured in a gamma counter (Wizard2, Perkin Elmer, Germany). The amount of plasma-bound compound was calculated based on the counts in the […] relative to the total counts (filtrate + membrane).

Data set [2] in a line: in vitro. The following applies: plasma. In kind it is in vitro ADME. The method, then: Determination of stability in plasma was performed with the ^177Lu-labeled peptide. 10 µL of the labeled compound were added into human or mouse plasma (mouse: BioIVT, United Kingdom, human: Sigma Aldrich, Germany) and incubated at 37 °C. Aliquots were taken at different time points during incubation (1, 6, 24, 48 and 72 h) to which acetonitrile (30 μL) was added in order to precipitate plasma proteins. After centrifugation at 13,000 rpm for 5 min at r.t. the supernatant was taken and analyzed via HPLC.

The subject of another data set is HT1080 cells. As to the kind of experiment: Cell surface binding and internalization assay. In kind it is cell-based, human. The following applies: listed as 68Ga-BCY18469. The method, then:
To assess internalization and specificity, HT1080 cells (10^5 cells/well) were seeded in a 24-well plate coated with poly-L-lysine one day before the experiment. […] To determine specific uptake, 'cold' (non-radiolabeled) BCY18469 was added to half of the wells at an excess concentration of 10 µM/well or, alternatively, the cells were kept at 4 °C during the experiment. Following the incubation, the cells were thoroughly rinsed with cold PBS (3 x 1 mL). Subsequently, surface bound radioactivity was removed by washing with 50 mM glycine (pH 2.8, 2 x 500 µL). Finally, the internalized fraction was determined by lysing the cells with 0.5 M NaOH (500 µL). All fractions were collected and measured using a gamma counter (Perkin Elmer Wizard2, Germany). All counts were standardized to the initial activity, and specific surface binding as well as specific internalization were calculated by subtracting the non-specific binding values obtained from the wells treated with an excess of 'cold' compound. Results were calculated and expressed as %AA/10^5 cells (% applied activity/10^5 cells).

Data set [3] is described as follows: in vivo. The following applies: female, BALC/c nu/nu, mouse, iv, 150 pmol, total radioactivity. The method, then: (§1) PET/MR imaging was performed in 8-week-old female BALC/c nu/nu mice (Charles River, Germany) which were subcutaneously inoculated on the right upper flank with 10^6 cells (1:1 in PBS:Matrigel). Tumor growth was monitored, and once size was approx. 300-500 mm^3, 150 pmol of [^68Ga]Ga-BCY18469 (4 - 9 MBq) was injected intravenously via tail vein with subsequent imaging performed under isoflurane anesthesia. For the PET imaging experiments with blocking, an excess (15 nmol) of non-radiolabeled BCY18469 was injected 5 mins before the injection of 300 pmol (4 MBq) of the ^68Ga-labeled compound. PET imaging consisted of a dynamic scan from 0 to 60 min p.i. (30 frames), followed by non-triggered localizer and a 3-step whole body T1-weighed 3D MR-scan (PET/MR 3T, Bruker BioSpin, Germany). Additionally, a 2 h p.i. static image (10 min scan) was recorded, followed by the same MR scan protocol. Data was obtained via ParaVision 3.0 and reconstructed using a Maximum-Likelihood Expectation-Maximization (MLEM) algorithm at 0.5 mm for 18 iterations. Reconstructed data was analyzed with PMOD 3.7.

In the next data set the test system is MCF-7 tumor xenograft. The following applies: mouse, in vivo. The protocol:
as §1

Data set [4] in a line: in vivo. The settings on record: male, athymic nude, mouse. The protocol: (§2) SPECT/CT imaging was performed in three 5- to 8-week-old male athymic nude mice (Janvier Labs, UK) which were subcutaneously inoculated on the right upper flank with 5 x 10^6 PC-3 cells (1:1 in PBS:Matrigel). Tumor growth was monitored, and once size was approx. 200 - 500 mm^3, mice were injected intravenously via tail vein with 230 pmol of [^111In]In-BCY18469 (5.3 ± 0.2 MBq). Mice were imaged under isoflurane anesthesia using whole-body static SPECT followed by a CT at each timepoint (30 min SPECT scan time starting at 1h and 24h p.i.). Reconstructed images were generated in units of activity. Namely, the values assigned to the voxels (volume elements) comprising the 3D reconstructed SPECT images were in units of MBq or equivalent. Reconstructed images were processed with VivoQuant (Invicro). Whole body maximum intensity projection (MIP) images were generated using VivoQuant.

A further data set concerns PC-3 tumor xenograft. As to the kind of experiment: in vivo. The settings on record: male, athymic nude, mouse. The method, then: as §2
The mark [5] stands for this setting: 4°C, block with 10 µM non-labeled compound.
Where [6] appears, read: total radioactivity, Liver uptake.

Numbered stars: 1 amine (or outer) side, 2 acyl side, 3 side chain; on linkers, the order of the positions; unused ones are H or OH. Bridge positions count the residues as written; N and C are the ends. Square brackets hold non-standard residues; d marks the D form. Peptide text beside a SMILES is read from it. * marks the point of attachment. DOTA = O=C(O)CN1CCN(CC(=O)O)CCN(CC(=O)*)CCN(CC(=O)O)CC1; TATA = O=C(CC[*:1])N1CN(C(=O)CC[*:2])CN(C(=O)CC[*:3])C1; Hyp = O=C(O)[C@@H]1C[C@@H](O)CN1; hArg = N=C(N)NCCCC[C@H](N)C(=O)O; Cba = N[C@@H](CC1CCC1)C(=O)O; βAla = NCCC(=O)O; Sar = CNCC(=O)O

The record followed here is article PMC11373624, “Development and preclinical characterization of a novel radiotheranostic EphA2-targeting bicyclic peptide” (Theranostics, 2024).

Consider `CC(C)C[C@@H]1NC(=O)[C@@H]2CSCCC(=O)N3CN(CN(C3)C(=O)CCSC[C@H](NC(=O)[C@H](CC(=O)O)NC(=O)[C@H](CCCCNC(=N)N)NC(=O)[C@H](C)NC(=O)CN(C)C(=O)CN(C)C(=O)CN(C)C(=O)CN(C)C(=O)CN(C)C(=O)CN(C)C(=O)CN(C)C(=O)CN(C)C(=O)CN(C)C(=O)CN(C)C(=O)CCNC(=O)CN3CCN(CC(=O)O)CCN(CC(=O)O)CCN(CC(=O)O)CC3)C(=O)N3C[C@H](O)C[C@H]3C(=O)N[C@@H](CC3CCC3)C(=O)N[C@@H](C(C)C)C(=O)N[C@@H](CC(N)=O)C(=O)N3CCC[C@H]3C(=O)N[C@@H](CC(C)C)C(=O)N2)C(=O)CCSC[C@@H](C(N)=O)NC(=O)[C@H](CCCCNC(=N)N)NC(=O)[C@H](Cc2c[nH]c3ccccc23)NC(=O)[C@@H](CC(=O)O)NC(=O)[C@@H]2CCCN2C(=O)[C@H](Cc2c[nH]cn2)NC1=O` [[68Ga]Ga-BCY18469, metal not drawn] ({DOTA-βAla}-[Sar][Sar][Sar][Sar][Sar][Sar][Sar][Sar][Sar][Sar]A[hArg]DC[Hyp][Cba]VNPLCLHP[dD]W[hArg]C-NH2; linker 14-21-28 via TATA), for which the fraction unbound at 15 min in “in vitro [1]” was ~0.5. The compound further displayed an amount remaining at 72 h in “in vitro [2]” (human) of 94%. This compound also yielded a share remaining at 72 h in “in vitro [2]” (mouse) of 40%. For the same compound, in the data set with HT1080 cells (setting [5]), the “Cell Surface B 4°C” value amounted to 0.03 ± 0.01 %AA/10^5 cells and the “Internalization B 4°C” value worked out at 0.01 ± 0.00 %AA/10^5 cells. For the same compound, in the data set on HT1080 cells (4°C), the “Cell Surface 4°C” value amounted to 0.47 ± 0.01 %AA/10^5 cells and the “Internalization 4°C” value was 0.05 ± 0.01 %AA/10^5 cells. In the data set with HT1080 cells (37°C, 45 min, 30 nM), the “Cell Surface” value came to 0.53 ± 0.03 %AA/10^5 cells and the Internalization came to 0.18 ± 0.05 %AA/10^5 cells. Also, the “Internalization B” value in the data set with HT1080 cells (37°C, block with 10 µM non-labeled compound) came out at 0.06 ± 0.00 %AA/10^5 cells. For the same compound, the SUV in the data set “in vivo [3]” (Bladder uptake) is 0.41 SUV. Besides, in the data set “in vivo [3]” (Kidneys uptake), the SUV amounted to 3.15 SUV. In “in vivo [3]” (Liver uptake), the SUV amounted to 1.13 SUV. For the same compound, in the data set “in vivo [3]” (Tumor SUVbw), the SUV at 1 h stood at 1.7 SUV and the SUV at 2 h came to 1.2 SUV. Moreover, the SUV in the data set “in vivo [3]” (Tumor uptake) amounted to 0.67 SUV. Further, the “uptake in the tumor” value in the data set with MCF-7 tumor xenograft is “no uptake”.
`CC(C)C[C@@H]1NC(=O)[C@@H]2CSCCC(=O)N3CN(CN(C3)C(=O)CCSC[C@H](NC(=O)[C@H](CC(=O)O)NC(=O)[C@H](CCCCNC(=N)N)NC(=O)[C@H](C)NC(=O)CN(C)C(=O)CN(C)C(=O)CN(C)C(=O)CN(C)C(=O)CN(C)C(=O)CN(C)C(=O)CN(C)C(=O)CN(C)C(=O)CN(C)C(=O)CN(C)C(=O)CCNC(=O)CN3CCN(CC(=O)O)CCN(CC(=O)O)CCN(CC(=O)O)CC3)C(=O)N3C[C@H](O)C[C@H]3C(=O)N[C@@H](CC3CCC3)C(=O)N[C@@H](C(C)C)C(=O)N[C@@H](CC(N)=O)C(=O)N3CCC[C@H]3C(=O)N[C@@H](CC(C)C)C(=O)N2)C(=O)CCSC[C@@H](C(N)=O)NC(=O)[C@H](CCCCNC(=N)N)NC(=O)[C@H](Cc2c[nH]c3ccccc23)NC(=O)[C@@H](CC(=O)O)NC(=O)[C@@H]2CCCN2C(=O)[C@H](Cc2c[nH]cn2)NC1=O` [[111In]In-BCY18469, metal not drawn] ({DOTA-βAla}-[Sar][Sar][Sar][Sar][Sar][Sar][Sar][Sar][Sar][Sar]A[hArg]DC[Hyp][Cba]VNPLCLHP[dD]W[hArg]C-NH2; linker 14-21-28 via TATA): the tissue uptake at 1 h in “in vivo [4]” (Bladder uptake) was 207 %ID/g; in “in vivo [4]” (Heart uptake), 0.03 %ID/g; in the data set “in vivo [4]” (Kidneys uptake), 32 %ID/g; in “in vivo [4]” (Muscle uptake), 0.27 %ID/g; in “in vivo [4]” (Spleen uptake) it was 0.27 %ID/g; in the data set “in vivo [4]” (Tail uptake), 0.28 %ID/g. Further, the tissue uptake at 1 h came to 0.13 %ID/g in “in vivo [4]” (setting [6]); 0.12 %ID/g in “in vivo [4]” (total radioactivity, Lungs uptake); 5.7 ± 1.5 %ID/g in “in vivo [4]” (total radioactivity, Tumor uptake). Besides, the tissue uptake at 24 h in the data set “in vivo [4]” (Bladder uptake) is 4.2 %ID/g; in the data set “in vivo [4]” (Heart uptake) it was 0.03 %ID/g; in the data set “in vivo [4]” (Kidneys uptake), 17 %ID/g; in the data set “in vivo [4]” (Lungs uptake), 0.01 %ID/g; in the data set “in vivo [4]” (Muscle uptake), 0.02 %ID/g; in the data set “in vivo [4]” (Spleen uptake), 0.4 %ID/g. Also, the tissue uptake at 24 h worked out at 0.07 %ID/g in “in vivo [4]” (Tail uptake), 2.3 %ID/g in “in vivo [4]” (Tumor uptake) and 0.05 %ID/g in “in vivo [4]” (setting [6]). In addition, the tissue uptake in the data set “in vivo [4]” (total radioactivity, Non-target organs uptake) is ≤ 1 %ID/g. The compound further displayed a Kidneys uptake with PC-3 tumor xenograft (1 h) of 31.9 ± 3.4 %ID/g. Further, the Tumor uptake in the data set with PC-3 tumor xenograft (1 h) amounted to 5.72 ± 1.47 %ID/g; with PC-3 tumor xenograft (24 h) it was 2.32 ± 0.50 %ID/g.
